Here are results for four molecules from paper PMC1807944.

Like-named read-outs stand apart in the source and are kept apart here.

Experiment in all cases: SAXS titration
Data set [1] concerns the target T1, HIV-1 integrase (IN), monomer E (HIV-1, UniProt P04585 1148-1435).
Data set [2] addresses T1, HIV-1 integrase (IN), monomer E. This is another data set of the same source.
The target is the same in data set [3]. This is another data set of the same source.

By Kd is commonly meant a measure of binding affinity in units of concentration. Higher therefore signals weaker binding. As for AAAAA (ssDNA) [ss A5], the Kd in data set [1] was determined as 2600 ± 400 nM.
Consider GTGTGGAAAATCTCTAGCAGT (ssDNA) [ss 21-GT], for which the Kd in data set [2] was 10.6 ± 10 nM.
In data set [3], GTGTGGAAAATCTCTAGCA (ssDNA) [ss 19-CA] gave a Kd of 30 ± 15 nM.
Turning to GCAGT (ssDNA) [ss GCAGT], in data set [1], the affinity, expressed as Kd, was 7100 ± 700 nM.
